Source: the supplement of paper PMC10567573

B1: SEC22B (parent)
chain: AKQLFRKLNEQSPTRCTLEAGAMT
B2: MCOLN1 (parent)
chain: EEEDLRRRLKYFFMSPCDKFRAKG

Variants of: B1
Experiment: protein stability index of a GFP-peptide fusion (GPS, HEK-293T) (PSI 1-6); higher = more stable
Conditions: c terminus: a fixed tail appended
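Also: lentivirally expressed fusions sorted by FACS into six bins by GFP to DsRed ratio, PSI derived from sequencing read proportions per bin multiplied by bin number.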

| Variant | protein stability index |
| --- | --- |
| L18C | 2.66 |
| L18D | 3.92 |
| L18E | 3.47 |
| L18F | 2.09 |
| L18G | 2.48 |
| L18H | 2.64 |
| L18I | 2.35 |
| L18K | 2.7 |
| L18M | 2.16 |
| L18N | 3.17 |
| L18P | 3.24 |
| L18Q | 2.71 |
| L18R | 2.46 |
| L18S | 3.26 |
| L18T | 2.84 |
| L18V | 2.78 |
| L18W | 1.94 |
| L18Y | 1.89 |
| E19A | 2.28 |
| E19C | 2.52 |
| E19D | 3.05 |
| E19F | 1.41 |

| Variant | protein stability index |
| --- | --- |
| E19G | 2.12 |
| E19H | 2.46 |
| E19I | 1.64 |
| E19K | 2.47 |
| E19L | 2.35 |
| E19M | 2.15 |
| E19N | 2.95 |
| E19P | 2.99 |
| E19Q | 2.87 |
| E19R | 2.49 |
| E19S | 2.94 |
| E19T | 2.56 |
| E19V | 1.75 |
| E19W | 2.22 |
| E19Y | 2.18 |
| A20C | 1.64 |
| A20D | 3.07 |
| A20E | 3.22 |
| A20F | 1.34 |
| A20G | 3.5 |
| A20H | 2.47 |
| A20I | 2.27 |

| Variant | protein stability index |
| --- | --- |
| A20K | 3.02 |
| A20L | 2.27 |
| A20M | 3.4 |
| A20N | 3.08 |
| A20P | 2.65 |
| A20Q | 2.87 |
| A20R | 2.77 |
| A20S | 2.99 |
| A20T | 2.96 |
| A20V | 2.49 |
| A20W | 1.59 |
| A20Y | 2.01 |
| G21A | 1.96 |
| G21C | 2.58 |
| G21D | 2.99 |
| G21E | 2.56 |
| G21F | 2.42 |
| G21H | 1.94 |
| G21I | 1.88 |
| G21K | 2.11 |
| G21L | 2.12 |
| G21M | 1.34 |

| Variant | protein stability index |
| --- | --- |
| G21N | 2.18 |
| G21P | 2.38 |
| G21Q | 1.68 |
| G21R | 2.4 |
| G21S | 2.51 |
| G21T | 1.86 |
| G21V | 4.07 |
| G21W | 1.61 |
| G21Y | 1.95 |
| A22C | 2.07 |
| A22D | 2.33 |
| A22E | 2.53 |
| A22F | 1.49 |
| A22G | 2.35 |
| A22H | 1.82 |
| A22I | 2.17 |
| A22K | 1.79 |
| A22L | 1.58 |
| A22M | 2.07 |
| A22N | 2.8 |
| A22P | 2.25 |
| A22Q | 1.88 |

| Variant | protein stability index |
| --- | --- |
| A22R | 2.14 |
| A22S | 2.27 |
| A22T | 1.84 |
| A22V | 1.89 |
| A22W | 3.6 |
| A22Y | 2.41 |
| M23A | 2.09 |
| M23C | 2.18 |
| M23D | 2.77 |
| M23E | 2.59 |
| M23F | 1.72 |
| M23G | 2.85 |
| M23H | 2.25 |
| M23I | 2.04 |
| M23K | 2.45 |
| M23L | 2.47 |
| M23N | 2.61 |
| M23P | 2.7 |
| M23Q | 2.81 |
| M23R | 2.26 |
| M23S | 2.7 |
| M23T | 2.22 |

| Variant | protein stability index |
| --- | --- |
| M23V | 1.81 |
| M23W | 2.19 |
| M23Y | 2.37 |
| T24A | 1.82 |
| T24C | 2.26 |
| T24D | 2.39 |
| T24E | 2.09 |
| T24F | 1.99 |
| T24G | 2.49 |
| T24H | 2.06 |
| T24I | 1.92 |
| T24K | 2.29 |
| T24L | 2.13 |
| T24M | 2.59 |
| T24N | 1.98 |
| T24P | 1.72 |
| T24Q | 2.39 |
| T24R | 2.14 |
| T24S | 2.19 |
| T24V | 1.99 |
| T24W | 2.19 |
| T24Y | 2.36 |

Variants of: B2
Experiment: as above
Conditions: c terminus: a fixed tail appended

| Variant | protein stability index |
| --- | --- |
| E1A | 2.53 |
| E1C | 3.42 |
| E1D | 2.96 |
| E1F | 2.29 |
| E1G | 2.46 |
| E1H | 3.05 |
| E1I | 2.19 |
| E1K | 1.76 |
| E1L | 2.16 |
| E1M | 2.08 |
| E1N | 1.51 |
| E1P | 2.14 |
| E1Q | 1.62 |
| E1R | 1.36 |
| E1S | 2.24 |
| E1T | 3.34 |
| E1V | 1.51 |
| E1W | 2.2 |
| E1Y | 2.27 |
| E2A | 2.37 |
| E2D | 1.92 |
| E2G | 1.67 |
| E2H | 2.72 |
| E2I | 2.21 |
| E2M | 2.58 |
| E2N | 1.96 |

| Variant | protein stability index |
| --- | --- |
| E2P | 2.23 |
| E2Q | 2.27 |
| E2R | 3.07 |
| E2S | 1.86 |
| E2T | 1.72 |
| E2W | 4.34 |
| E2Y | 1.94 |
| E3A | 1.62 |
| E3C | 2.65 |
| E3D | 2.41 |
| E3F | 2.04 |
| E3G | 2.12 |
| E3H | 2.33 |
| E3I | 1.64 |
| E3K | 1.87 |
| E3L | 1.37 |
| E3M | 1.15 |
| E3N | 1.91 |
| E3P | 2.25 |
| E3Q | 1.5 |
| E3R | 2.15 |
| E3S | 2.9 |
| E3T | 1.52 |
| E3V | 2.83 |
| E3W | 1.14 |
| E3Y | 1.85 |

| Variant | protein stability index |
| --- | --- |
| D4A | 1.13 |
| D4C | 1.8 |
| D4E | 2.08 |
| D4F | 1.42 |
| D4G | 3.22 |
| D4H | 2.04 |
| D4I | 1.71 |
| D4K | 1.83 |
| D4L | 2.13 |
| D4M | 1.48 |
| D4N | 2.04 |
| D4P | 2.94 |
| D4Q | 1.57 |
| D4R | 2.23 |
| D4S | 1.42 |
| D4T | 2.49 |
| D4V | 1.74 |
| D4W | 1.44 |
| D4Y | 2.18 |
| L5A | 2.91 |
| L5C | 2.82 |
| L5D | 3.43 |
| L5E | 3.53 |
| L5F | 3.09 |
| L5G | 3.05 |
| L5H | 3.31 |

| Variant | protein stability index |
| --- | --- |
| L5I | 1.92 |
| L5K | 3.2 |
| L5M | 2.32 |
| L5N | 3.51 |
| L5P | 3.17 |
| L5Q | 3.84 |
| L5R | 3.72 |
| L5S | 2.92 |
| L5T | 3.65 |
| L5V | 3.09 |
| L5W | 2.91 |
| L5Y | 2.45 |
| R6A | 3.18 |
| R6C | 2.85 |
| R6D | 3.28 |
| R6E | 3.48 |
| R6F | 1.59 |
| R6G | 2.99 |
| R6H | 1.97 |
| R6I | 2 |
| R6K | 1.9 |
| R6L | 1.76 |
| R6M | 1.42 |
| R6N | 3.78 |
| R6P | 2.11 |
| R6Q | 3.04 |

| Variant | protein stability index |
| --- | --- |
| R6S | 3.6 |
| R6T | 2.66 |
| R6V | 2.34 |
| R6W | 1.8 |
| R6Y | 1.64 |
| R7A | 2.35 |
| R7C | 2.38 |
| R7D | 3.01 |
| R7E | 3.33 |
| R7F | 2.44 |
| R7H | 2.73 |
| R7I | 2.39 |
| R7K | 2.63 |
| R7L | 2.29 |
| R7M | 1.55 |
| R7N | 2.55 |
| R7P | 3.33 |
| R7Q | 2.52 |
| R7S | 2.82 |
| R7T | 2.65 |
| R7V | 2 |
| R7W | 1.91 |
| R7Y | 2.65 |
| R8A | 2 |
| R8C | 1.86 |
| R8D | 3.11 |

| Variant | protein stability index |
| --- | --- |
| R8E | 3.21 |
| R8F | 1.42 |
| R8G | 2.97 |
| R8H | 2.35 |
| R8I | 1.76 |
| R8K | 2.71 |
| R8L | 2.1 |
| R8M | 2.05 |
| R8N | 3.29 |
| R8P | 3.23 |
| R8Q | 3 |
| R8S | 2.67 |
| R8T | 2.42 |
| R8V | 2.62 |
| R8W | 2.42 |
| R8Y | 1.64 |
| L9A | 3.3 |
| L9C | 3.03 |
| L9D | 4.1 |
| L9E | 4.4 |
| L9F | 2.96 |
| L9G | 3.64 |
| L9H | 3.32 |
| L9I | 1.92 |
| L9K | 2.89 |
| L9M | 3.27 |

| Variant | protein stability index |
| --- | --- |
| L9N | 3.5 |
| L9P | 3.64 |
| L9Q | 3.7 |
| L9R | 3.35 |
| L9S | 3.91 |
| L9T | 3.33 |
| L9V | 3.15 |
| L9W | 2.32 |
| L9Y | 2.97 |
| K10A | 2.15 |
| K10C | 2.15 |
| K10D | 3.41 |
| K10E | 2.67 |
| K10F | 1.82 |
| K10G | 2.58 |
| K10H | 2.11 |
| K10I | 1.62 |
| K10L | 2.97 |
| K10M | 1.93 |
| K10N | 3.21 |
| K10P | 2.79 |
| K10Q | 2.26 |
| K10R | 2.33 |
| K10S | 2.3 |
| K10T | 2.15 |
| K10V | 2.32 |

| Variant | protein stability index |
| --- | --- |
| K10W | 2.1 |
| K10Y | 1.67 |
| Y11A | 2.9 |
| Y11C | 2.77 |
| Y11D | 2.87 |
| Y11E | 3.73 |
| Y11F | 2.88 |
| Y11G | 3.2 |
| Y11H | 2.46 |
| Y11I | 1.93 |
| Y11K | 2.65 |
| Y11L | 2.23 |
| Y11M | 2.79 |
| Y11N | 3.23 |
| Y11P | 3.33 |
| Y11Q | 3.25 |
| Y11R | 2.38 |
| Y11S | 2.88 |
| Y11T | 2.82 |
| Y11V | 2.93 |
